Laboratory results reported in patent US20170342349A1, “STABILIZED ENZYME COMPOSITIONS” (NOVOZYMES A/S, priority 2014, published 2017).
Positions count from the first letter of the chain named. In names and notes the source's numbering stands. Several values for one entry are separate records, joined by “and”; a condition that tells them apart may be missing. Equal entries are not always repeated.

B1: L184F: protease variant of SEQ ID NO 3 (protein, listed as Bacillus sp.)
chain: AVPSTQTPWGIKSIYNDQSITKTTGGSGIKVAVLDTGVYTSHLDLAGSAEQCKDFTQSNPLVDGSCTDRQGHGTHVAGTVLAHGGSNGQGVYGVAPQAKLWAYKVLGDNGSGYSDDIAAAIRHVADEASRTGSKVVINMSLGSSAKDSLIASAVDYAYGKGVLIVAAAGNSGSGSNTIGFPGGFVNAVAVAALENVQQNGTYRVADFSSRGNPATAGDYIIQERDIEVSAPGASVESTWYTGGYNTISGTSMATPHVAGLAAKIWSANTSLSHSQLRTELQNRAKVYDIKGGIGAGTGDDYASGFGYPRVK
B2: S173P + S175P + F180Y + L184F: protease variant of SEQ ID NO 3 (protein, listed as Bacillus sp.)
chain: B1 chain with S173P, S175P, F180Y
B3: S173P + S175P + F180Y + G182A: protease variant of SEQ ID NO 3 (protein, listed as Bacillus sp.)
chain: B1 chain with S173P, S175P, F180Y, G182A, F184L
B4: S173P + S175P + I178Y + F180Y: protease variant of SEQ ID NO 3 (protein, listed as Bacillus sp.)
chain: B1 chain with S173P, S175P, I178Y, F180Y, F184L
B5: S173P + S175P + I178F + F180Y: protease variant of SEQ ID NO 3 (protein, listed as Bacillus sp.)
chain: B1 chain with S173P, S175P, I178F, F180Y, F184L
B6: S173P + S175P + I178P + F180Y: protease variant of SEQ ID NO 3 (protein, listed as Bacillus sp.)
chain: B1 chain with S173P, S175P, I178P, F180Y, F184L
B7: K146R + S173P + S175P + F180Y: protease variant of SEQ ID NO 3 (protein, listed as Bacillus sp.)
chain: B1 chain with K146R, S173P, S175P, F180Y, F184L
B8: S173P + S175P + F180Y + L184Y: protease variant of SEQ ID NO 3 (protein, listed as Bacillus sp.)
chain: B1 chain with S173P, S175P, F180Y, F184Y
B9: S173P + S175P + F180Y + L184W: protease variant of SEQ ID NO 3 (protein, listed as Bacillus sp.)
chain: B1 chain with S173P, S175P, F180Y, F184W
B10: S111I + S173P + S175P + F180Y: protease variant of SEQ ID NO 3 (protein, listed as Bacillus sp.)
chain: B1 chain with S111I, S173P, S175P, F180Y, F184L
B11: S173P + S175P + F180Y + G182S: protease variant of SEQ ID NO 3 (protein, listed as Bacillus sp.)
chain: B1 chain with S173P, S175P, F180Y, G182S, F184L
B12: S173P + S175P + F180Y + L184D: protease variant of SEQ ID NO 3 (protein, listed as Bacillus sp.)
chain: B1 chain with S173P, S175P, F180Y, F184D
B13: S173P + S175P + F180Y + L184H: protease variant of SEQ ID NO 3 (protein, listed as Bacillus sp.)
chain: B1 chain with S173P, S175P, F180Y, F184H
B14: A145E: protease variant of SEQ ID NO 3 (protein, listed as Bacillus sp.)
chain: B1 chain with A145E, F184L
B15: S144R: protease variant of SEQ ID NO 3 (protein, listed as Bacillus sp.)
chain: B1 chain with S144R, F184L
B16: S111E: protease variant of SEQ ID NO 3 (protein, listed as Bacillus sp.)
chain: B1 chain with S111E, F184L
B17: S111D: protease variant of SEQ ID NO 3 (protein, listed as Bacillus sp.)
chain: B1 chain with S111D, F184L
B18: N60F + S100I: protease variant of SEQ ID NO 6 (protein)
chain: AQSVPWGISRVQAPAAHNRGLTGSGVKVAVLDTGISTHPDLNIRGGASFVPGEPSTQDGFGHGTHVAGTIAALNNSIGVLGVAPSAELYAVKVLGASEGIGSVSSIAQGLEWAGNNGMHVANLSLGSPSPSATLEQAVNSATSRGVLVVAASGNSGAGSISYPARYANAMAVGATDQNNNRASFSQYGAGLDIVAPGVNVQSTYPGSTYASLNGTSMATPHVAGAAALVKQKNPSWSNVQIRNHLKNTATSLGSTNLYGSGLVNAEAATR
modifications: Protease C
B19: S100I + L134V: protease variant of SEQ ID NO 6 (protein)
chain: B18 chain with F60N, L134V
modifications: Protease C
B20: S100I + Y166F: protease variant of SEQ ID NO 6 (protein)
chain: B18 chain with F60N, Y166F
modifications: Protease C
B21: A164S: protease variant of SEQ ID NO 6 (protein)
chain: B18 chain with F60N, I100S, A164S
modifications: Protease C

Test: Inhibitor binding assay of SEQ ID NO 3 variants, Inhibitor 1, in Model B detergent
Format: biochemical
Details: in Model B relative to SEQ ID NO 3; relative Ki, IF>1.0 = lower Ki
Description: (§1) Where E is the protease, I is the inhibitor and EI is the protease-inhibitor complex. […] The concentration of enzyme-inhibitor in the detergent solution is then given by:
(§2) where Etot is the total protease concentration ([Etot]=[E]+[EI]), Itot is the total inhibitor concentration ([Itot]=[I]+[EI]), and Ki is the equilibrium binding constant for the reaction. The measured slopes V are given by:
(§3) where V0 is the slope without inhibitor added. To calculate apparent binding constant Ki least square fitting of measured slopes at various inhibitor concentrations to this equation is performed with Ki and V0 as variables.
(§4) Purified protease variants are pre-diluted to approximately 0.2 mg/ml in dilution buffer. The experimental conditions are described in Table 5. 40 μl diluted protease is then mixed with 40 μl inhibitor solution Inhibitor 1: (Cbz-Gly-Ala-NHCH(CH2C6H4pOH)C(OH)(SO3Na)—H, wherein Cbz is benzyloxycarbonyl) or 40 μl Inhibitor 2: (4-FPBA) solution in the well of a 96 well microtiter plate (Nunc F 96-MTP). […] After 10 min mixing of protease and inhibitor at room temperature, 30 μl of the mixture is transferred to a microtiter plate (Nunc U96 PP 0.5 ml) with 270 μl Model B detergent (described in Table 1) in the wells resulting in inhibitor 1 concentrations of 0-30 μM and inhibitor 2 concentrations of 0-6000 μM. Protease, inhibitor and detergent is mixed for 1 hour using magnetic bars for 1 hour at room temperature to reach equilibrium. Then 20 μl is transferred to a microtiter plate (Nunc F 96-MTP). 100 μl substrate solution is added and after 5 sec mixing absorbance at 405 nm is measured every 20 sec for 5 min on a SpectraMax Plus reader. Slope from linear regression of initial increase in absorbance at 405 nm is used for calculation of apparent binding constants. Ki values were calculated according to the “Calculation of Ki” method described in “Materials and Methods”
(§5) Having the Ki for each variant, it is possible to calculate the effect of a single mutation, if data are available for at least two variants that differ only by that mutation. In this case, the relative Ki for the mutation (Improvement Factor, or IF) is calculated:
(§6) A lower Ki is desirable, as a satisfactory inhibition can be obtained at a lower inhibitor concentration, so beneficial mutations have an IF>1.0

Molecule	inhibitor 1 binding constant improvement factors (IF)
B1	2.27

Same assay, conditions: in Model B relative to SEQ ID NO 3 comprising S173P + S175P + F180Y; relative Ki, IF>1.0 = lower Ki

Molecule	inhibitor 1 binding constant improvement factors (IF)
B2	4.28 and 3.02
B3	2.49 and 2.01
B4	2.15
B5	2.34 and 1.83
B6	2.22
B7	1.31
B8	3.91
B9	2.23
B10	1.12
B11	1.69
B12	3.28
B13	2.50

Test: Inhibitor binding assay of SEQ ID NO 3 variants, Inhibitor 2, in Model B detergent
Format: biochemical
Details: in Model B relative to SEQ ID NO 3; relative Ki, IF>1.0 = lower Ki
Description: as §1, §2, §3, §4, §5, §6

Molecule	inhibitor 2 binding constant improvement factors (IF)
B1	1.39
B14	1.03
B15	2.03
B16	1.23
B17	1.53

Test: Inhibitor binding assay of SEQ ID NO 6 variants, Inhibitor 1, in Model B detergent
Format: biochemical
Details: in Model B relative to SEQ ID NO 6; relative Ki, IF>1.0 = lower Ki
Description: as §1, §2, §3
(§7) Purified protease variants are pre-diluted to approximately 0.2 mg/ml in dilution buffer. The experimental conditions are described in Table 5 40 μl diluted protease is then mixed with 40 μl inhibitor solution Inhibitor 1 or 40 μl inhibitor 2 solution in the well of a 96 well microtiter plate (Nunc F 96-MTP). […] After 10 min mixing of protease and inhibitor at room temperature, 30 μl of the mixture is transferred to a microtiter plate (Nunc U96 PP 0.5 ml) with 270 μl Model B detergent (described in Table 1) in the wells resulting in inhibitor 1 concentrations of 0-30 μM and inhibitor 2 concentrations of 0-6000 μM. Protease, inhibitor and detergent is mixed for 1 hour using magnetic bars for 1 hour at room temperature to reach equilibrium. Then 20 μl is transferred to a microtiter plate (Nunc F 96-MTP). 100 μl substrate solution is added and after 5 sec mixing absorbance at 405 nm is measured every 20 sec for 5 min on a SpectraMax Plus reader. Slope from linear regression of initial increase in absorbance at 405 nm is used for calculation of apparent binding constants. Ki values were calculated according to the “Calculation of Ki” method described in “Materials and Methods”
(§8) Having the Ki for each variant, it is possible to calculate the effect of a single mutation, if data are available for at least two variants that differ only by that mutation. In this case, the relative Ki for the mutation (Improvement Factor, or IF) is calculated: […]

Molecule	inhibitor 1 binding constant improvement factors (IF)
B18	11.26
B19	15.14
B20	11.26

Test: Inhibitor binding assay of SEQ ID NO 6 variants, Inhibitor 2, in Model B detergent
Format: biochemical
Details: in Model B relative to SEQ ID NO 6; relative Ki, IF>1.0 = lower Ki
Description: as §1, §2, §3, §7, §8

Molecule	inhibitor 2 binding constant improvement factors (IF)
B19	1.1
B20	2.31
B21	1.84
